Experimental data as given in article PMC8065580, “A Lipid Bodies-Associated Galactosyl Hydrolase Is Involved in Triacylglycerol Biosynthesis and Galactolipid Turnover in the Unicellular Green Alga Chlamydomonas reinhardtii” (Plants, 2021).

Substrate: O=[N+]([O-])c1ccccc1O[C@@H]1O[C@H](CO)[C@H](O)[C@H](O)[C@H]1O
Test: purified protein
Assay type: biochemical, Chlamydomonas reinhardtii
Conditions: 30 mM magnesium chloride buffer, pH 7.3, 37 °C, MBP fusion

B1: CrGH (Chlamydomonas reinhardtii) (protein)
chain: MTGSGKPAANKATANGDGEPVRFLKGAAISVWQNSGDDDSNWTRFAKSRWPFRSFGVSAIRGKYNIDKCSDFWNNYERDIKLAADIGSTTFRFSIEWARIEPLRGVFDMEAVHRYHQMLDCMAAHGLVPNATLWHFVHPTWFEQAGGWTKEENIPAFVRFSVKCFEWFKDKITLWATFNEPTCYMFLAFIVGIAPPGRIMDLVTAGRMLSTMLKAHTATYRAIKAAPGGQAAQVGLVSHHITFEPQGTGILYGVSKVLSDWMTYWWGWDVVHHWMLTGEFVWKLPVLGVWQRWQDPAGRPPCDWWGINYYSRGIFSWYLAPSCRESEVMTDMYYPIYPEGLYKCIKRCSEFGIPMYITETGIADARDDRRALMIDSYMKATLRAVAEGCDVRGLYYWTLLDNLEWATGYTMKFGLYAWEPDGSVDRKLKEGSKTLVRYFKTLPDDLAGVRAAARQVQGQLGEDLGVEAALEEEGVTRVAAGGKLVVGEAAGKGGEAEGRKAVGMVAIG
notes: full-length CDS (1527-bp ORF, about 508 residues) in pMAL-c5x, MBP fusion, about 98 kDa, E. coli BL21(DE3), amylose resin; tag cleavage not mentioned; GH family 1, motifs TFNEP and ITETG
Q: For B1, which Km is on record?
A: 13.98 µM

Q: What about the kcat of the same protein?
A: 3.62 s⁻¹
